Among the data in the RNAGym collection of RNA variant scans (doi:10.7554/elife.90254) are self-cleavage values, retold here.

Sequences and labels used below:
B1: LINE1-full (parent)
chain: UACGUAGGUGGUUUUCCCCUGAUAGUGCUAAGGGGGCCUGGAAGUUUGGACUGGGCAGAGCUCAACACAGCGUGGCAAAGUGGCUGUGGCUAGACUGCCUCUCUGGAUUCCUCGUCACUCAGCAGGGCAUCUCUGAGAGAAAUGCC

This data set covers variants of B1. The experiment in a line: self-cleavage, relative activity (ratio to wild type); higher = more cleavage; in vitro, sequencing; the parent is a self-cleaving ribozyme.
Consider A24G A30G, for which the self-cleavage was 0.42.

In the case of G25U A59G, the self-cleavage was 0.18.

As to A24U A124G, the self-cleavage was found to be 1.06.

As to G25U U45G, the self-cleavage amounted to 0.93.

G25A G54U: the self-cleavage was 0.45.

Take U23C U102A: the self-cleavage stood at 1.28.

For U23C U102C, the self-cleavage was found to be 1.33.

For A24G G86A, the self-cleavage worked out at 0.12.

Consider U23A U115C, for which the self-cleavage is 1.18.

Regarding U23C A140C, the self-cleavage turned out to be 1.35.

As to U23C A140U, the self-cleavage turned out to be 1.29.

Turning to U23C A140G, the self-cleavage stood at 1.28.

As for A24U A67U, the self-cleavage was 0.1.

U23C A124U: the self-cleavage turned out to be 1.22.

On to U23C A124C, for which the self-cleavage came out at 1.34.

Regarding U26A A57U, the self-cleavage stood at 0.04.

G25A U96C: the self-cleavage was 0.

Take A24U A78G: the self-cleavage was 1.31.

Consider U26A A121U, for which the self-cleavage came to 1.11.

For U26A A121G, the self-cleavage is 1.46.

As to G25A A69G, the self-cleavage was 0.41.

A24C U73C: the self-cleavage was found to be 1.84.

Take A24C G114A: the self-cleavage came to 0.68.

On to U26A C103U, for which the self-cleavage was found to be 0.98.

Turning to A24U U115A, the self-cleavage was 1.54.

Turning to A24U U115C, the self-cleavage is 1.92.

On to U23C A77G, for which the self-cleavage turned out to be 1.24.

With U23C A77U, the self-cleavage turned out to be 1.36.

For G25U U46C, the self-cleavage worked out at 1.74.

As for U23C U112C, the self-cleavage stood at 1.57.

For the variant A24U U91C, the self-cleavage was 0.45.

As to U26A C110A, the self-cleavage worked out at 0.95.

For A24G A31G, the self-cleavage was 0.72.

In the case of A24G U62A, the self-cleavage turned out to be 0.07.

As for A24G U62C, the self-cleavage worked out at 0.14.

As for A24C A77G, the self-cleavage stood at 2.76.

Turning to A24U C116A, the self-cleavage amounted to 1.7.

For U26A A50C, the self-cleavage amounted to 0.78.

For the variant U23C U62A, the self-cleavage worked out at 0.06.

A24U A140G: the self-cleavage was found to be 1.75.

For the variant A24C A57G, the self-cleavage is 1.17.

With A24G U119C, the self-cleavage was found to be 0.83.

As for U26A, the self-cleavage amounted to 0.94.

For A24G C123U, the self-cleavage worked out at 0.71.

With A24C C99A, the self-cleavage amounted to 0.47.

With U26A C116U, the self-cleavage was 0.99.

Take U26A G33U: the self-cleavage worked out at 0.62.

As to U26A G33A, the self-cleavage is 0.67.

In the case of A24G U45C, the self-cleavage turned out to be 1.12.

A24G U45G: the self-cleavage is 0.

With A24G A124U, the self-cleavage stood at 1.54.

As to U23A U143A, the self-cleavage was 2.26.

On to G25A A142G, for which the self-cleavage worked out at 1.35.

Consider A24G G122C, for which the self-cleavage was determined as 1.12.

A24G: the self-cleavage came out at 1.17.

For the variant A24C, the self-cleavage amounted to 1.62.

For A24U, the self-cleavage is 1.25.

With U26A C38A, the self-cleavage came to 0.73.

U23C C120U: the self-cleavage is 0.55.

On to A24G A142G, for which the self-cleavage is 1.1.

As to U23C C66U, the self-cleavage was 0.05.

On to U23C U143A, for which the self-cleavage was found to be 1.28.

On to A24G A121U, for which the self-cleavage turned out to be 2.93.

Turning to A24G A121C, the self-cleavage came to 2.3.

As for U23C G74A, the self-cleavage was determined as 0.99.

On to G25U A140G, for which the self-cleavage came out at 0.7.

For the variant U26A C66A, the self-cleavage is 0.05.

Consider U26A C95U, for which the self-cleavage worked out at 0.17.

For the variant U26A A59G, the self-cleavage came to 0.06.

As for U23C U26G, the self-cleavage worked out at 1.45.

For the variant U23A U109A, the self-cleavage stood at 1.33.

With U23A U109C, the self-cleavage was determined as 1.06.

Regarding U26A C99A, the self-cleavage is 0.09.

On to U26A C99U, for which the self-cleavage worked out at 0.37.

For U23C U29C, the self-cleavage came out at 1.06.

On to A24G U100C, for which the self-cleavage was determined as 1.32.

For A24G G97A, the self-cleavage is 0.17.

For G25A U81C, the self-cleavage was found to be 1.91.

Regarding G25C A140G, the self-cleavage is 2.41.

Take A24C G49A: the self-cleavage was determined as 0.82.

Turning to A24U U45C, the self-cleavage is 1.19.

In the case of A24U U45A, the self-cleavage is 0.82.

Regarding A24G U115C, the self-cleavage came to 1.46.

Take A24G U115A: the self-cleavage was found to be 1.45.

As for U23C G127C, the self-cleavage stood at 1.12.

For A24G A78G, the self-cleavage worked out at 1.19.

Take A24G A78U: the self-cleavage came out at 2.33.

As for U23C A50U, the self-cleavage was found to be 1.

With U23C A50G, the self-cleavage turned out to be 1.34.

As for U23C C113U, the self-cleavage was 0.88.

Turning to A24G U81A, the self-cleavage turned out to be 0.47.

In the case of G25A A30U, the self-cleavage was 0.7.

For U23C C56A, the self-cleavage worked out at 0.07.

On to U26A A141G, for which the self-cleavage turned out to be 1.11.

Regarding U26A A142G, the self-cleavage stood at 1.2.

As for U23C A142G, the self-cleavage turned out to be 1.61.

U23C A129G: the self-cleavage was 0.

On to A24U C120U, for which the self-cleavage came to 0.79.

Take U26A A43G: the self-cleavage was 0.97.

As to U26A A43U, the self-cleavage was 0.89.

Consider U23C A64C, for which the self-cleavage is 0.29.

For the variant A24G U109C, the self-cleavage is 0.76.

For the variant U26A A92U, the self-cleavage came to 0.61.

Regarding G25U, the self-cleavage was found to be 1.45.

As for G25A, the self-cleavage worked out at 1.21.

For the variant G25C, the self-cleavage is 1.4.

Regarding U26A A30G, the self-cleavage was determined as 0.84.

With A24G G126A, the self-cleavage stood at 1.09.

Regarding A24U A57C, the self-cleavage worked out at 0.

As for A24U A57U, the self-cleavage stood at 0.16.

With G25A A65C, the self-cleavage is 0.02.

Turning to U26A C133U, the self-cleavage was 1.01.

With A24U U81C, the self-cleavage is 1.24.

As to A24G U73A, the self-cleavage worked out at 1.2.

On to A24G U73C, for which the self-cleavage came to 1.68.

In the case of U26A C90A, the self-cleavage came out at 0.04.

U23C U81A: the self-cleavage amounted to 1.85.

Consider U23C U81C, for which the self-cleavage was determined as 1.41.

On to G25U U39A, for which the self-cleavage was 0.31.

With A24U U46C, the self-cleavage came out at 1.54.

With A24G U85G, the self-cleavage is 0.1.

With A24G U85A, the self-cleavage came out at 0.13.

For A24C A140G, the self-cleavage was 1.15.

Take A24U A59G: the self-cleavage is 0.06.

On to U23G U115C, for which the self-cleavage was 1.29.

A24G A141U: the self-cleavage is 1.41.

Turning to U23C A121C, the self-cleavage was 1.9.

Turning to A24G A69U, the self-cleavage turned out to be 0.21.

As for U23A U108G, the self-cleavage is 1.59.

In the case of U23A U108C, the self-cleavage stood at 1.45.

With A24U U73C, the self-cleavage worked out at 1.79.

For G25A A79G, the self-cleavage is 0.91.

For A24U C51U, the self-cleavage stood at 0.84.

In the case of G25U A42G, the self-cleavage was determined as 1.04.

With U23C U87A, the self-cleavage was 0.06.

On to A24U A92G, for which the self-cleavage is 0.08.

On to U23A U102C, for which the self-cleavage worked out at 2.11.

Take U23A U102A: the self-cleavage amounted to 1.18.

With A24G G75A, the self-cleavage was determined as 1.02.

On to A24G U91C, for which the self-cleavage was 0.81.

As to U23C G58A, the self-cleavage was determined as 0.1.

U23C A78G: the self-cleavage was determined as 1.25.

On to A24G A117G, for which the self-cleavage turned out to be 1.78.

On to A24U U47A, for which the self-cleavage turned out to be 0.99.

In the case of U26A A64U, the self-cleavage was 0.23.

Take U26A A64G: the self-cleavage stood at 0.2.

With U26A A138G, the self-cleavage was determined as 1.25.

In the case of U26A A138U, the self-cleavage was 0.78.

Consider U26A C76A, for which the self-cleavage is 1.51.

As to U23G U112C, the self-cleavage amounted to 1.07.

In the case of A24U A121U, the self-cleavage turned out to be 0.55.

Turning to A24C U109A, the self-cleavage stood at 2.55.

On to U26A A79G, for which the self-cleavage worked out at 0.75.

A24U U130C: the self-cleavage amounted to 1.35.

Turning to U23C G54A, the self-cleavage was determined as 0.51.

With G25A C76U, the self-cleavage was determined as 1.35.

As for A24G A77C, the self-cleavage worked out at 2.04.

For the variant A24G A77G, the self-cleavage stood at 1.41.

With G25U C123A, the self-cleavage was determined as 0.95.

For U23C A24G, the self-cleavage worked out at 1.48.

For U23C A94G, the self-cleavage came out at 0.37.

Consider A24U A77U, for which the self-cleavage was 0.93.

For the variant A24U A77G, the self-cleavage is 2.22.

Consider A24U A129G, for which the self-cleavage was determined as 0.75.

In the case of G25C U115A, the self-cleavage turned out to be 1.02.

Regarding A24G A67G, the self-cleavage was 0.45.

Take U23G U87A: the self-cleavage was determined as 0.11.
